According to the DeepSol protein solubility set:

Assay: soluble on expression in E. coli; label from the status in PepcDB or PDB records

With “MQAKLFMIPWLIELVISQRAPSPPNPTPSAQVLTNDLLVDAHRRHFLDMLRRQQQINDALLLNNALLHPHPLPPLHIPANPAIQELNLPPAPPLFNPFIPAQVANQGPTSKLGTYGKDDEPEKKSEELKETPEEKEGTVGAPVRTDLVKKTLAGVKTVSIQKKGDVTGETLTTMEVVAPTTSTISPEDLEVVQLFKKLNLSKEETKSIVERVEQVVREKLMSKMDTSSTTTEVTTVVTTPSTTTTTTSTTQAPTTTTKEFIEEEIEEEDYSVATTAPPPQMHIRSEENLILQRNNLKHHPIKLQEKKLPESLESEEISQGSIKTSLTHLPIFVANEEEDVASLNPKSALHKRILIASQDREKESDRDLLVDFATGAPLDLSEPDVTKSKYEASPVATSPATLAPAQVTTRPVAPPRLNYHERTDFERLASDYRRRLENTGDINKILQKISENAYISLVERGGRRRLFGS” the “soluble on expression in E. coli” value was “not soluble”.

With “GAEKEDLVQEGILGLLKAIKFYDETKSSFSSFAFLCIRREMISAIRKANTQKHMVLNEALKTNAILEDSAYFDDEGHNINNYKSSESNPEEAYLLKEEIEEFKKFSENNFSKFEKEVLTYLIRGYSYREIATILSKNLKSIDNTIQRIRKKSEEWIKEEENIKR” the “soluble on expression in E. coli” value was “soluble”.

With “MGSDKIHHHHHHMSIMNFSEYQTQALKTDQIPAVEGTELMIPLLGLVGEVGSLMTEYKKHLRDGDAHKLFKEGIAEELGDMLWYISNLASKFNLNLEEIAEDNLRKCRDRWGWRDSAQIEDKGTTYIFDNDFPENESLPRQFEVEITEISKDNSIKMKAFINKKQVGNDLTDNSYTSDGYRFHDVFHFSYAAVLGWSAVTRSMLKRKRKSNSSIDEVEDGGRAIAIEEGISALIFSYAKNHGFLERVSTLDYQILKTIKNMTCHLEVSQCSLGDWEKAILMGYDVWRQVEKNRGGRVVLDLDARLITYLKKSSLCSASVEIKH” the “soluble on expression in E. coli” value was “not soluble”.

With “MIMKKEKTYSRAPLPFVGQKRMFVSEFKKILKHFDDKTIFVDLFGGSGLLSHITKRERPDAVVIYNDHDNYRERLENIDRTNTLLRDLRKIVGIYPRHQKITGKMREAFLERIRLEETTGFVDYLTLSTSLLFSGKYAQNMEELEGLYFYNKIRQSDYRCDGYLDGLEVVCYDYKELADTYGVFPGVVFLVDPPYMGTDISTYKMDWKLADYLDVLLVLKGH” the “soluble on expression in E. coli” value was “not soluble”.

With “VFIEERLEELSTFADSSDLTKIEYGNKKIGIITSGIAYNYAKEVIPDASFLKFGMSYPLPEEKIKEFVENCDKVYVFEELEPIFEQKIKSMGLNVIGKEIFPIIGELSSEIIRNALLNESKEVIDKFDELPQRPPVLCPGCHHRGPFYVLKKLKLHVAGDIGCYTLGGFGPLNAIDTTICMGASIGMAH” the “soluble on expression in E. coli” value was “not soluble”.

For “MQAVNTTSGGAVGVERQQYMFSMLSTDEVNQMYAQSYQQTLGEASSKGVLDKSSADAKRVQAIANRLIAQAPKFRPDAAQWDWQVNVIKSDELNANCGPGGKIIVYTGLIDQLKLTDAEIAAVVGHEIAHALREHSREAMSKAYGVEMARQGAGAIFGLGQSSMAMADTVVNYAMTLPNSRANENEADLIGLELSARAGYDPNAAITLWNKMSKASEGAPPEFMSTHPASASRIASLQAAIPKVMPLYQAAAKPLEHHHHHH”, the “soluble on expression in E. coli” value was “soluble”.

For “MNGKPDLVITDSQVFKQVNAKLDRSVPLTSFSILMARYKGDLDKFYSGAKAIKNLKAGDKVLIAEACTHHQLKGDIAREKLPTWLEETCPGIIVHNCSGKDFPKNLNEYALVIHCGGCMFNKAEIMNRIGICDDALVPITNFGTSIAEINNILDRVMEPLKLEHHHHHH”, the “soluble on expression in E. coli” value was “not soluble”.

With “MFTQQRLRPNTQELLKETNHLCEAFAISESILARYQRNNRQLSESEKKAFASLLLRVPHDFLTETVASLGTSKTSSIGPTTDLGSLIDNVFGFGKPLKDVFQLLNQELGNCLNSPRCRVYYLDPTDNLLKDPVYATASTLDETTPLGKAVLTGIQREIAGTLYLPLSFEGKVIACVESAWGSPEKGDKRRIKETLQFVACAMHNAIESERLRWNKEKAEAMLEMATQLARDNLDEAVLANSIMNTAKVLTESDRCSIFLVKDDTLEAHFEDGNIVAIPIATGIAGYVAQTGQTVKISDAYSDDRFNREVDKATGYRTKTILCMPVTYEGSIVAVAQLINKLDMVTESGLRLPRTFGKRDEELFQTFSMFAGASLRNCRINEKLINEKRKSDAILDVVTLLSNTDIRDVDGIVRHVLHGAKRLLYADRSALFLVDKERNELYSRIADSVAGKEIRFPCGQGIAGIVASTGIGENILDAYQDPRFNREVDKQLGYRTQTLLCEPIVLNGEILAVVQLVNKLNEAGEVTVFTESDRETFRVFSLFAGISINNSHLLEFAVKAGREMMELNENRALAGGRTGSLRNIKRPLAITEAERQAVRDINLAHLDITSIDFDLFYLRENMELPLDAAAAVAYRLIVGTGLPQKFRCRDDTLLNFILQCRKKYRNVPYHNFYHVVDVCQTVYTFLYKGAVCEKLTELDCFVLLVTALVHDLDHMGLNNSFYLKTDSPLGILSSASGNASVLEVHHCNLAVEILSDPDSDVFEGLDAADRTLAYRSMIDCVLATDMAKHGKSLESFLSVLGNPETSEQRIAELTMQIVLKAGDVSNVTKPFDISRLWAMAVTEEFYRQGDMEKEKGVEVLPMFDRSKNTELAKGQIGFIDFVAGPFFKKIVSASLTGMQWTVERVESNRLEWQRSLDAK” the “soluble on expression in E. coli” value was “not soluble”.

In the case of “MSLKIWITKNHKSKDDWSRSKKFIIIKITTHDGVEGWGEAFSIHLREKAIATIIIELFKEISKIKNLSINSLYNKISLLSDNHKGLDFSAATSAIEIAAWDIAGKLKNLPLNCLLTDNPKPDVSIYVTCWSDLRKDEEDYLDQVEKYFEKKYGGIKIYPLFENTSNSIKFVDRVRKIVGMEYPLMLDLAIPKDLDQTKTFLKEVSFLKPYWIEEPVDGENISLLTEIKNSFDMKVVTGEKQSGLPHFKEIIKRDAADILNPDISGIGGIIDMLYVSKEALNNDISISPHCWNSMSVSASAMLHVCSSIPNSEKAEIFPDYIEFTKEFCELPFNIVEDKAILNQSAGLGIVIHEDTLSNLSTYRMDEKNEGHHHHHH”, the “soluble on expression in E. coli” value was “soluble”.

For “GPGSMRNLLGESAVSSLVIEEPTKVAMTTSPTAVLNSSMSTDTDSTAVSPARVKGVSPQTKANGNSNGDGSTAIRGQSNDKQLEAPTEVQYRAVEVMVVDRGTQTTTTVGCQTDPEPSQSPVGGAMPFHRGFCPRCTCCCRGVVRDYPWRNAREEEDRSSRFQEELETIQKSIDMMIARYNLPPPPMPRY”, the “soluble on expression in E. coli” value was “not soluble”.

In the case of “MTERKLVAERNFEVNGYDIDAMGIVSNIVYIRWFEDLRTDFINQYMPYSDMMNQQISPILMNTEAEYKTPITIHDKPVGRCYLVKASKLRWEFEFEIESEDAVHCIGKQSGTFFDLQKKKVTRLPEVFQTILSLEHHHHHH”, the “soluble on expression in E. coli” value was “not soluble”.

In the case of “RATPRMEDLASTDLSTRATGSINAVYFTNWGIYGRNFQPADLQASKILHVLYSFMNLRVDGTVYSGDTYADLEKHYSDDSWNDIGTNAYGCVKQLYKLKKANRSLKIMLSIGGWTWSTNFPAAASTEATRATFAKTAVEFMKDWGFDGIDVDWEYPASETDANNMVLLLQRVRQELDSYSATYANGYHFQLSIAAPAGPSHYNVLKLAQLGSVLDNINLMAYDYAGSWDSVSGHQTNLYPSTSNPSSTPFSTKAAVDAYIAAGVPASKIILGMPIYGRAFVGTDGPGKPYSTIGEGSWESGIWDYKVLPKAGATVITDSAAGATYSYDSSSRTMISYDTPDMVRTKVSYAKGLGLGGSMFWEASADKTGSDSLIGTALSSMGSHDSTQNCLSYPNSKFDNIKNSLS”, the “soluble on expression in E. coli” value was “soluble”.

With “MAELRETLERLASFRPQNYYVSTLYLRLMPEDRQDNKYLRVYKDLVKKKEKDLENLNLDKEVLDSIRGDIKNIQDFLSDPKNLYNCRGIAIFSCSKLGLFEYVKLPYVYRNRLMFSPDPLVREIAAIDEEFGRVAVLLLDRKHIRYFLMDITGIEEKLDFLEPMTTRAHRFHSGGALLKGAEGTFQYRMPARGAAPNVVQHGMGEWRFHMRLREEWHRILKLASDALFEEWKRIHFDKLIIGGFIEEGLREIENFLHPYVKEKLVGYIEITPEEATPHQVWEKALDLLWQKDREQEKEIIKELEELKGWGLAVNGTSEVLEMLAIGNVRTLILPEDFEKPGYLCPQSHLAFLKPECPLPEEKPIPVSDVVDEALEEALDQRATIEVIIDKELQKKVDGLAAFLRFKL” the “soluble on expression in E. coli” value was “not soluble”.

With “MAELVPFAVPIESDKTLLVWELSSGPTAEALHHSLFTAFSQFGLLYSVRVFPNAAVAHPGFYAVIKFYSARAAHRAQKACDRKQLFQKSPVKVRLGTRHKAVQHQALALNSSKCQELANYYFGFNGCSKRIIKLQELSDLEERENEDSMVPLPKQSLKFFCALEVVLPSCDCRSPGIGLVEEPMDKVEEGPLSFLMKRKTAQKLAIQKALSDAFQKLLIVVLESGKIAVEYRPSEDIVGVRCEEELHGLIQVPCSPWKQYGQEEEGYLSDFSLEEEEFRLPELD” the “soluble on expression in E. coli” value was “soluble”.

In the case of “MEYRIERDTMGEVRVPADKYWGAQTQRSLENFRIGTDRFRMPLEIIRAYGMLKKAAARANLELGELPEEIAKAIIQAAEEVVQGKWDDHFPLVVFQTGSGTQTNMNVNEVIANRASEILGKPLGSKYVHPNDHVNRGQSSNDTFPTAMYVAVALALHQRLYPAVEGLIRTFTAKAQAFDQIVKVGRTHLMDAVPITLGQEIGSWAAQLKTTLAAVKEMEKGLYNLAIGGTAVGTGLNAHPRFGELVAKYLAEETGLPFRVAENRFAALAAHDELVNVMGAIRTLAGALMKIGNDVRWLASGPYAGIGEITIPANEPGSSIMPGKVNPTQVEALTMVVVRVYGNDHTVAFAGSQGNFQLNVYKPVMAYSTLESINLLADAVASFDAHLAQGIEPNLERIEEHLQKNPMLATALNKAIGYDKAAEIVKKALKEKKTLKQAALELGYLTEEEFDRIVVPMRLAKPHEGA”, the “soluble on expression in E. coli” value was “soluble”.

For “MKSKFEASIDNLKEIEMNAYAYELIREIVLPDMLGQDYSSMMYWAGKHLARKFPLESWEEFPAFFEEAGWGTLTNVSAKKQELEFELEGPIISNRLKHQKEPCFQLEAGFIAEQIQLMNDQIAESYEQVKKRADKVVLTVKWDMKDPVMAGDPLEHHHHHH”, the “soluble on expression in E. coli” value was “soluble”.

For “MSADHDHDHDHDHDHKPAPMVEEVSDFEILEMAVRELAIEKGLFSAEDHRVWKDYVHTLGPLPAARLVAKAWLDPEYKKLCIEDGVEASKAVGVNWVTSPPTQFGTPSDYCNLRVLADSPTLKHVVVCTLCSCYPRPILGQSPEWYRSPNYRRRLVRWPRQVLAEFGLQLPSEVQIRVADSNQKTRYIVMPVRPEGTDGWTEDQLAEIVTRDCLIGVAVPKPGITVNAKRPVLKANRPVHHDH”, the “soluble on expression in E. coli” value was “soluble”.

In the case of “MIAKTDSDIRHVTPSGGNVFADLGFHKQDAEKFYADSLNEIENTLAIKQQLMEEITLWITQNQMKQAEVATVLHISRPRVSDVVNKKCSKFTIDALVNMLSRIGKPVRVMVGP”, the “soluble on expression in E. coli” value was “not soluble”.

For “MDMMWISYHLKKGGRRLRIRIGIDIGSTHTDAVALEGKELIVADKVMTTPDLTTGLLNAISRVMKKLGERKNEVDTLMIGTTHGLNALHQGKGLNRVATIRIGLPAGEGVPPVFDWPEQLSNFVTYRYMVRGGHEYTGEEIVELDEGKIKEIAEAINGKVDAIAISSIFSVVNSSHEIRAREILREKG”, the “soluble on expression in E. coli” value was “not soluble”.

For “MSNLVLYTLHLSPPCRAVELTAKALGLELEQKTINLLTGDHLKPEFVKLNPQHTIPVLDDNGTIITESHAIMIYLVTKYGKDDSLYPKDPVKQARVNSALHFESGVLFARMRFIFERILFFGKSDIPEDRVEYVQKSYELLEDTLVDDFVAGPTMTIADFSCISTISSIMGVVPLEQSKHPRIYAWIDRLKQLPYYEEANGGGGTDLGKFVLAKKEENAKA”, the “soluble on expression in E. coli” value was “soluble”.

With “GHMYEVDHADVYDLFYLGRGKDYAAEASDIADLVRSRTPEASSLLDVACGTGTHLEHFTKEFGDTAGLELSEDMLTHARKRLPDATLHQGDMRDFRLGRKFSAVVSMFSSVGYLKTTEELGAAVASFAEHLEPGGVVVVEPWWFPETFADGWVSADVVRRDGRTVARVSHSVREGNATRMEVHFTVADPGKGVRHFSDVHLITLFHQAEYEAAFTAAGLRVEYLEGGPSGRGLFVGVPA” the “soluble on expression in E. coli” value was “soluble”.
